Experimental data from PMC11612794.

Target: 3xFLAG-CENP-T^Δ161–216 (chicken) (UniProt F1NPG5)

- GFP-Dsn1 (Mis12C) level at mitotic kinetochores in CENP-C^Δ73 cells after IAA: 15%
Substance: Mis12 complex (Mis12C) containing GFP-Dsn1^WT (from UniProt Q1T769 1-210; A0A8V0ZA15 1-290)
